Assay results taken from US20220048967A1 (published 2022).
Substitutions are numbered along the chain they refer to. Numbered stars: 1 amine (or outer) side, 2 acyl side, 3 side chain; on linkers, the order of the positions; unused ones are H or OH. Square brackets hold non-standard residues; d marks the D form. Side chains are listed from the residue outwards. Ends that are not written are not given here. * marks the point of attachment. C20 diacid = O=C(O)CCCCCCCCCCCCCCCCCCC(=O)*; αMePhe(2-F) = C[C@](N)(Cc1ccccc1F)C(=O)O; γGlu = O=C(O)[C@H](CCC(=O)[*:2])N[*:1]; Desaminohistidyl = O=C(CCc1c[nH]cn1)*; αMeF = C[C@](N)(Cc1ccccc1)C(=O)O; AEEA = NCCOCCOCC(=O)O; Aib = CC(C)(N)C(=O)O

B1: Example 102 (peptide)
peptide: Y[Aib]EGT[αMeF]TSDYSI[Aib]LDEK([AEEA-AEEA-γGlu-C20 diacid])AQ[Aib]AFIEYLIEGG-NH2
modifications: N-terminus assumed
SMILES: CC[C@H](C)[C@H](NC(=O)[C@H](CC(C)C)NC(=O)[C@H](Cc1ccc(O)cc1)NC(=O)[C@H](CCC(=O)O)NC(=O)[C@@H](NC(=O)[C@H](Cc1ccccc1)NC(=O)[C@H](C)NC(=O)C(C)(C)NC(=O)[C@H](CCC(N)=O)NC(=O)[C@H](C)NC(=O)[C@H](CCCCNC(=O)COCCOCCNC(=O)COCCOCCNC(=O)CC[C@H](NC(=O)CCCCCCCCCCCCCCCCCCC(=O)O)C(=O)O)NC(=O)[C@H](CCC(=O)O)NC(=O)[C@H](CC(=O)O)NC(=O)[C@H](CC(C)C)NC(=O)C(C)(C)NC(=O)[C@@H](NC(=O)[C@H](CO)NC(=O)[C@H](Cc1ccc(O)cc1)NC(=O)[C@H](CC(=O)O)NC(=O)[C@H](CO)NC(=O)[C@@H](NC(=O)[C@](C)(Cc1ccccc1)NC(=O)[C@@H](NC(=O)CNC(=O)[C@H](CCC(=O)O)NC(=O)C(C)(C)NC(=O)[C@@H](N)Cc1ccc(O)cc1)[C@@H](C)O)[C@@H](C)O)[C@@H](C)CC)[C@@H](C)CC)C(=O)N[C@@H](CCC(=O)O)C(=O)NCC(=O)NCC(N)=O
B2: Example 117 (peptide)
peptide: Y[Aib]EGT[αMeF]TSDYSI[Aib]LDEK([AEEA-AEEA-γGlu-C20 diacid])AQ[Aib]AFIEYLIEGGPSSGAPPPS-NH2
modifications: N-terminus assumed
SMILES: CC[C@H](C)[C@H](NC(=O)[C@H](CC(C)C)NC(=O)[C@H](Cc1ccc(O)cc1)NC(=O)[C@H](CCC(=O)O)NC(=O)[C@@H](NC(=O)[C@H](Cc1ccccc1)NC(=O)[C@H](C)NC(=O)C(C)(C)NC(=O)[C@H](CCC(N)=O)NC(=O)[C@H](C)NC(=O)[C@H](CCCCNC(=O)COCCOCCNC(=O)COCCOCCNC(=O)CC[C@H](NC(=O)CCCCCCCCCCCCCCCCCCC(=O)O)C(=O)O)NC(=O)[C@H](CCC(=O)O)NC(=O)[C@H](CC(=O)O)NC(=O)[C@H](CC(C)C)NC(=O)C(C)(C)NC(=O)[C@@H](NC(=O)[C@H](CO)NC(=O)[C@H](Cc1ccc(O)cc1)NC(=O)[C@H](CC(=O)O)NC(=O)[C@H](CO)NC(=O)[C@@H](NC(=O)[C@](C)(Cc1ccccc1)NC(=O)[C@@H](NC(=O)CNC(=O)[C@H](CCC(=O)O)NC(=O)C(C)(C)NC(=O)[C@@H](N)Cc1ccc(O)cc1)[C@@H](C)O)[C@@H](C)O)[C@@H](C)CC)[C@@H](C)CC)C(=O)N[C@@H](CCC(=O)O)C(=O)NCC(=O)NCC(=O)N1CCC[C@H]1C(=O)N[C@@H](CO)C(=O)N[C@@H](CO)C(=O)NCC(=O)N[C@@H](C)C(=O)N1CCC[C@H]1C(=O)N1CCC[C@H]1C(=O)N1CCC[C@H]1C(=O)N[C@@H](CO)C(N)=O
B3: Example 6 (peptide)
peptide: Y[Aib]EGTFTSDYSILLDKK([AEEA-AEEA-γGlu-C20 diacid])AQ[Aib]AFIEYLLEGGPSSGAPPPS-NH2
modifications: N-terminus assumed
SMILES: CC[C@H](C)[C@H](NC(=O)[C@H](Cc1ccccc1)NC(=O)[C@H](C)NC(=O)C(C)(C)NC(=O)[C@H](CCC(N)=O)NC(=O)[C@H](C)NC(=O)[C@H](CCCCNC(=O)COCCOCCNC(=O)COCCOCCNC(=O)CC[C@H](NC(=O)CCCCCCCCCCCCCCCCCCC(=O)O)C(=O)O)NC(=O)[C@H](CCCCN)NC(=O)[C@H](CC(=O)O)NC(=O)[C@H](CC(C)C)NC(=O)[C@H](CC(C)C)NC(=O)[C@@H](NC(=O)[C@H](CO)NC(=O)[C@H](Cc1ccc(O)cc1)NC(=O)[C@H](CC(=O)O)NC(=O)[C@H](CO)NC(=O)[C@@H](NC(=O)[C@H](Cc1ccccc1)NC(=O)[C@@H](NC(=O)CNC(=O)[C@H](CCC(=O)O)NC(=O)C(C)(C)NC(=O)[C@@H](N)Cc1ccc(O)cc1)[C@@H](C)O)[C@@H](C)O)[C@@H](C)CC)C(=O)N[C@@H](CCC(=O)O)C(=O)N[C@@H](Cc1ccc(O)cc1)C(=O)N[C@@H](CC(C)C)C(=O)N[C@@H](CC(C)C)C(=O)N[C@@H](CCC(=O)O)C(=O)NCC(=O)NCC(=O)N1CCC[C@H]1C(=O)N[C@@H](CO)C(=O)N[C@@H](CO)C(=O)NCC(=O)N[C@@H](C)C(=O)N1CCC[C@H]1C(=O)N1CCC[C@H]1C(=O)N1CCC[C@H]1C(=O)N[C@@H](CO)C(N)=O
B4: Example 101 (peptide)
peptide: Y[Aib]EGT[αMePhe(2-F)]TSDYSI[Aib]LDEK([AEEA-AEEA-γGlu-C20 diacid])AQ[Aib]AFIEYLIEGG-NH2
modifications: N-terminus assumed
SMILES: CC[C@H](C)[C@H](NC(=O)[C@H](CC(C)C)NC(=O)[C@H](Cc1ccc(O)cc1)NC(=O)[C@H](CCC(=O)O)NC(=O)[C@@H](NC(=O)[C@H](Cc1ccccc1)NC(=O)[C@H](C)NC(=O)C(C)(C)NC(=O)[C@H](CCC(N)=O)NC(=O)[C@H](C)NC(=O)[C@H](CCCCNC(=O)COCCOCCNC(=O)COCCOCCNC(=O)CC[C@H](NC(=O)CCCCCCCCCCCCCCCCCCC(=O)O)C(=O)O)NC(=O)[C@H](CCC(=O)O)NC(=O)[C@H](CC(=O)O)NC(=O)[C@H](CC(C)C)NC(=O)C(C)(C)NC(=O)[C@@H](NC(=O)[C@H](CO)NC(=O)[C@H](Cc1ccc(O)cc1)NC(=O)[C@H](CC(=O)O)NC(=O)[C@H](CO)NC(=O)[C@@H](NC(=O)[C@](C)(Cc1ccccc1F)NC(=O)[C@@H](NC(=O)CNC(=O)[C@H](CCC(=O)O)NC(=O)C(C)(C)NC(=O)[C@@H](N)Cc1ccc(O)cc1)[C@@H](C)O)[C@@H](C)O)[C@@H](C)CC)[C@@H](C)CC)C(=O)N[C@@H](CCC(=O)O)C(=O)NCC(=O)NCC(N)=O
B5: Example 7 (peptide)
peptide: Y[Aib]EGTFTSDYSILLDSK([AEEA-AEEA-γGlu-C20 diacid])AQ[Aib]AFIEYLLEGGPSSGAPPPS-NH2
modifications: N-terminus assumed
SMILES: CC[C@H](C)[C@H](NC(=O)[C@H](Cc1ccccc1)NC(=O)[C@H](C)NC(=O)C(C)(C)NC(=O)[C@H](CCC(N)=O)NC(=O)[C@H](C)NC(=O)[C@H](CCCCNC(=O)COCCOCCNC(=O)COCCOCCNC(=O)CC[C@H](NC(=O)CCCCCCCCCCCCCCCCCCC(=O)O)C(=O)O)NC(=O)[C@H](CO)NC(=O)[C@H](CC(=O)O)NC(=O)[C@H](CC(C)C)NC(=O)[C@H](CC(C)C)NC(=O)[C@@H](NC(=O)[C@H](CO)NC(=O)[C@H](Cc1ccc(O)cc1)NC(=O)[C@H](CC(=O)O)NC(=O)[C@H](CO)NC(=O)[C@@H](NC(=O)[C@H](Cc1ccccc1)NC(=O)[C@@H](NC(=O)CNC(=O)[C@H](CCC(=O)O)NC(=O)C(C)(C)NC(=O)[C@@H](N)Cc1ccc(O)cc1)[C@@H](C)O)[C@@H](C)O)[C@@H](C)CC)C(=O)N[C@@H](CCC(=O)O)C(=O)N[C@@H](Cc1ccc(O)cc1)C(=O)N[C@@H](CC(C)C)C(=O)N[C@@H](CC(C)C)C(=O)N[C@@H](CCC(=O)O)C(=O)NCC(=O)NCC(=O)N1CCC[C@H]1C(=O)N[C@@H](CO)C(=O)N[C@@H](CO)C(=O)NCC(=O)N[C@@H](C)C(=O)N1CCC[C@H]1C(=O)N1CCC[C@H]1C(=O)N1CCC[C@H]1C(=O)N[C@@H](CO)C(N)=O
B6: Example 105 (peptide)
peptide: [Desaminohistidyl][Aib]EGTFTSDYSILLDKK([AEEA-AEEA-γGlu-C20 diacid])AQ[Aib]AFIEYLIEGGPSSGAPPPS-NH2
modifications: also: ψ[NHCO] bond between DesHis1 and Aib2
B7: Example 106 (peptide)
peptide: [Desaminohistidyl][Aib]EGTFTSDYSILLDKK([AEEA-AEEA-γGlu-C20 diacid])AQ[Aib]AFIEYLIEGGPSSGAPPPS-NH2
B8: Example 107 (peptide)
peptide: XXEGTFTSDYSILLDKKAQXAFIEYLIEGGPSSGAPPPS
modifications: DesTyr1; Aib2; K17((2-[2-(2-Amino-ethoxy)-ethoxy]-acetyl)2-(γ-Glu)-CO-(CH2)18-CO2H); Aib20; C-terminal NH2
B9: Example 8 (peptide)
peptide: B8 peptide with X1Y
modifications: Aib2; K17((2-[2-(2-Amino-ethoxy)-ethoxy]-acetyl)2-(γ-Glu)-CO-(CH2)18-CO2H); Aib20; C-terminal NH2
B10: Example 113 (peptide)
peptide: B8 peptide with X1Y
modifications: Aib2; K17((2-[2-(2-Amino-ethoxy)-ethoxy]-acetyl)2-(ϵK)-CO-(CH2)18-CO2H); Aib20; C-terminal NH2
B11: Example 112 (peptide)
peptide: B8 peptide with X1Y
modifications: Aib2; K17((2-[2-(2-Amino-ethoxy)-ethoxy]-acetyl)-(ϵK)-(γ-Glu)-CO-(CH2)18-CO2H); Aib20; C-terminal NH2
B12: Example 110 (peptide)
peptide: B8 peptide with X1Y
modifications: Aib2; K17((2-[2-(2-Amino-ethoxy)-ethoxy]-acetyl)-(γ-Glu)-(Trx)-CO-(CH2)18-CO2H); Aib20; C-terminal NH2

Each binder was assayed against human GLP-1 receptor (human, UniProt P43220 24-463) (assay: cell-based or functional assay).
In the case of B1, the “hGLP1R cAMP EC50 ratio” value is reported as 0.913 and the “hGLP1R cAMP Rel EC50” value is reported as 0.0628 nM. For B2, the “hGLP1R cAMP EC50 ratio” value was 0.998 and the “hGLP1R cAMP Rel EC50” value was 0.0615 nM. In the case of B3, the “hGLP1R cAMP EC50 ratio” value is reported as 0.185 and the “hGLP1R cAMP Rel EC50” value is reported as 0.374 nM. In the case of B4, the “hGLP1R cAMP EC50 ratio” value is reported as 1.06 and the “hGLP1R cAMP Rel EC50” value is reported as 0.0579 nM. In the case of B5, the “hGLP1R cAMP EC50 ratio” value is reported as 0.13 and the “hGLP1R cAMP Rel EC50” value is reported as 0.47 nM. With B6 the “hGLP1R cAMP EC50 ratio” value was 1.51 and the “hGLP1R cAMP Rel EC50” value was 0.0401 nM. B7 was tested, and the “hGLP1R cAMP EC50 ratio” value was 1.42 and the “hGLP1R cAMP Rel EC50” value was 0.0413 nM. With B8 the “hGLP1R cAMP EC50 ratio” value was 1.1 and the “hGLP1R cAMP Rel EC50” value was 0.0539 nM. With B9 the “hGLP1R cAMP Rel EC50” value was 0.148 nM. In the case of B10, the “hGLP1R cAMP Rel EC50” value is reported as 0.233 nM. In the case of B11, the “hGLP1R cAMP Rel EC50” value is reported as 0.16 nM. With B12 the “hGLP1R cAMP Rel EC50” value was 0.179 nM.

What follows are binders tested against T1, human GIP receptor (human, UniProt P48546 22-466) (assay: cell-based or functional assay).
T1 sequence (looked up): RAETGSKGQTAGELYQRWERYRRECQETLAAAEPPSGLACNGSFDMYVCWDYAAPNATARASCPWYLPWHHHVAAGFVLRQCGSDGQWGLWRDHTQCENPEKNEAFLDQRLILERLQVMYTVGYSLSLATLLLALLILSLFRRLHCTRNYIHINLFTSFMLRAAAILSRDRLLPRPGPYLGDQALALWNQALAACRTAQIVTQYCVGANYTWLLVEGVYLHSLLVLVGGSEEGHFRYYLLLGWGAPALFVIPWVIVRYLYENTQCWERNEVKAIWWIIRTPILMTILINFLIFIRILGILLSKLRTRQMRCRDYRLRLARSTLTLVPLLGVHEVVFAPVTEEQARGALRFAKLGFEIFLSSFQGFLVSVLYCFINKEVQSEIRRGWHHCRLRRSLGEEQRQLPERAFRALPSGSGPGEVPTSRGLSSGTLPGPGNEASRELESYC
With B1 the “hGIPR cAMP EC50 ratio” value was 0.983 and the “hGIPR cAMP Rel EC50” value was 0.178 nM. With B2 the “hGIPR cAMP EC50 ratio” value was 2.44 and the “hGIPR cAMP Rel EC50” value was 0.0648 nM. In the case of B3, the “hGIPR cAMP EC50 ratio” value is reported as 2.09 and the “hGIPR cAMP Rel EC50” value is reported as 0.0899 nM. In the case of B4, the “hGIPR cAMP EC50 ratio” value is reported as 2.07 and the “hGIPR cAMP Rel EC50” value is reported as 0.0704 nM. In the case of B5, the “hGIPR cAMP EC50 ratio” value is reported as 0.317 and the “hGIPR cAMP Rel EC50” value is reported as 0.461 nM. For B6, the “hGIPR cAMP EC50 ratio” value was 0.101 and the “hGIPR cAMP Rel EC50” value was 1.85 nM. For B7, the “hGIPR cAMP EC50 ratio” value was 0.0302 and the “hGIPR cAMP Rel EC50” value was 6.54 nM. For B8, the “hGIPR cAMP EC50 ratio” value was 0.747 and the “hGIPR cAMP Rel EC50” value was 0.241 nM. With B9 the “hGIPR cAMP Rel EC50” value was 0.0848 nM. B10 was tested, and the “hGIPR cAMP Rel EC50” value was 0.166 nM. For B11, the “hGIPR cAMP Rel EC50” value was 0.124 nM. B12 was tested, and the “hGIPR cAMP Rel EC50” value was 0.218 nM.
